Values quoted from earlier work, collected in patent US4287185A, “Method for the detection of viruses” (Suntory Ltd., priority 1978, dated 1981).

Settings: mouse, in vivo

B1: neocarzinostatin (protein, UniProt P0A3R9 35-147, looked up)
Neocarzinostatin: AAPTATVTPSSGLSDGTVVKVAGAGLQAGTAYDVGQCAWVDTGVLACNPADFSSVTADANGSASTSLTVRRSFEGFLFDGTRWGTVDCTTAACQVGLSDAAGNGPEGVAISFN
notes: carcinostatic agent having 109 constituent amino acids, already put into clinical practice
LD50 compared with that of SP (about 3.5 mg/Kg): almost the same
